Source: publication doi:10.1101/301622 (bioRxiv, 2018)

Molecular target: ΔCTT, a variant of FtsZ that lacks the CTT (B. subtilis)

ΔCTT, a variant of FtsZ that lacks the CTT (domain or fragment)
GTPase activity (coupled assay, 5 μM protein, 1 mM GTP), relative to WT FtsZ: 3 fold
